In the RNAGym collection of RNA variant scans (doi:10.7554/elife.80360):

B1: CPEB3 Ribozyme (parent)
chain: GGGGGCCACAGCAGAAGCGUUCACGUCGCGGCCCCUGUCAGAUUCUGGUGAAUCUGCGAAUUCUGCUGU

Variants of: B1
Experiment: self-cleavage, relative activity (ratio to wild type); higher = more cleavage; co-transcriptional

Compared with GGGGGUCACAGCAGAAGUGUUCACGUCGCGGCCCCUGUCAGAUUCUGGUGAAUCUGCGAAUUCUGCUGU [C6U C18U], GGGGGGCACAGCAGAAGCGUUCACGUCGCGGCCCGUGUCAGAUUCUGGUGAAUCUGCGAAUUCUGCUGU [C6G C35G] is lower in self-cleavage: 0.727 for the first, 0.0784 for the second.

Compared with GGGGGGCACAGCAGAAGCGUUCACGCCGCGGCCCCUGUCAGAUUCUGGUGAAUCUGCGAAUUCUGCUGU [C6G U26C], GGGGGGCACAGCAGAAGCGUUCACGUCGCGGCCCCUGUCAGAUUCUGGUGAAUAUGCGAAUUCUGCUGU [C6G C54A] is lower in self-cleavage: 0.249 for the first, 0.162 for the second.

Compared with GGGGGGCACAGCAGAAGCGUUCACGUCGCGCCCCCUGUCAGAUUCUGGUGAAUCUGCGAAUUCUGCUGU [C6G G31C], GGGGGUCACAGCAGAAGCGUUCACGUCGCGGACCCUGUCAGAUUCUGGUGAAUCUGCGAAUUCUGCUGU [C6U C32A] is lower in self-cleavage: 0.93 for the first, 0.177 for the second.

Compared with GGGGGGCACAGCAGAAGCGUUCACGUCGCGGCCCCUGUCAGAUUCUGGUGAAGCUGCGAAUUCUGCUGU [C6G U53G], GGGGGGCACAGCAGAAGCGUUCACGUCGCGGCCCCUUUCAGAUUCUGGUGAAUCUGCGAAUUCUGCUGU [C6G G37U] is lower in self-cleavage: 0.136 for the first, 0.0713 for the second.

Going from GGGGGGCACAGCAGAAGCGUUCACGUCGCGGCCCCUGUCAGAUUCUGGUGAAUCUGGGAAUUCUGCUGU [C6G C57G] to GGGGGGCACAGCAGAAGCGUUCACGUCGCGGCCCCUGUCAGAUUCUGGUGAAUCUGCGAAUUCUGCAGU [C6G U67A], the self-cleavage rises from 0.0373 to 0.325.

First: GGGGGUCACAACAGAAGCGUUCACGUCGCGGCCCCUGUCAGAUUCUGGUGAAUCUGCGAAUUCUGCUGU [C6U G11A]
Second: GGGGGUCACAGCAGAAGCGUUCACGUCGCGGCCCCUGUCAGAUUCUGGUGUAUCUGCGAAUUCUGCUGU [C6U A51U]
The self-cleavage of the first is lower: 0.861 for the first, 0.986 for the second.

Going from GGGGGUCACAGCAGAAGCGUUCACGUCGCGGCCCCUGUCAGAUUCUGGUGGAUCUGCGAAUUCUGCUGU [C6U A51G] to GGGGGGCACAGCAGAAGCGUUCACGUCGAGGCCCCUGUCAGAUUCUGGUGAAUCUGCGAAUUCUGCUGU [C6G C29A], the self-cleavage falls from 1.01 to 0.0897.

Going from GGGGGUCACAGCAGAAGCGUUCACGUUGCGGCCCCUGUCAGAUUCUGGUGAAUCUGCGAAUUCUGCUGU [C6U C27U] to GGGGGGCACAGCAUAAGCGUUCACGUCGCGGCCCCUGUCAGAUUCUGGUGAAUCUGCGAAUUCUGCUGU [C6G G14U], the self-cleavage falls from 0.256 to 0.121.

First: GGGGGGCACAGCAGAAGCGUUCACGUCGCGGCCCCUGUCAGAUUCUUGUGAAUCUGCGAAUUCUGCUGU [C6G G47U]
Second: GGGGGGCACAGCAGAAGCGUUCACGUCGCGGCCCCUGUCAGAUUCUGAUGAAUCUGCGAAUUCUGCUGU [C6G G48A]
The self-cleavage of the first is lower: 0.463 for the first, 0.493 for the second.

Going from GGGGGGCACAGCAGAAGCGUUCACGUCGCGGCCCCUGUAAGAUUCUGGUGAAUCUGCGAAUUCUGCUGU [C6G C39A] to GGGGGGCACAGCAGAAGCGUUCACGUCGCGGCCCCUGUUAGAUUCUGGUGAAUCUGCGAAUUCUGCUGU [C6G C39U], the self-cleavage falls from 0.173 to 0.168.

Going from GGGGGUCACAGCUGAAGCGUUCACGUCGCGGCCCCUGUCAGAUUCUGGUGAAUCUGCGAAUUCUGCUGU [C6U A13U] to GGGGGUCACAGCGGAAGCGUUCACGUCGCGGCCCCUGUCAGAUUCUGGUGAAUCUGCGAAUUCUGCUGU [C6U A13G], the self-cleavage rises from 0.867 to 0.987.

First: GGGGGUCACGGCAGAAGCGUUCACGUCGCGGCCCCUGUCAGAUUCUGGUGAAUCUGCGAAUUCUGCUGU [C6U A10G]
Second: GGGGGGCACAGCAGAAGCGUUUACGUCGCGGCCCCUGUCAGAUUCUGGUGAAUCUGCGAAUUCUGCUGU [C6G C22U]
The self-cleavage of the first is higher: 0.908 for the first, 0.106 for the second.

First: GGGGGGCACAGCAGAAGCGUUGACGUCGCGGCCCCUGUCAGAUUCUGGUGAAUCUGCGAAUUCUGCUGU [C6G C22G]
Second: GGGGGGCACAGCAGAAGCGUUAACGUCGCGGCCCCUGUCAGAUUCUGGUGAAUCUGCGAAUUCUGCUGU [C6G C22A]
The self-cleavage of the first is lower: 0.0649 for the first, 0.0965 for the second.

Going from GGGGGUCACAGCAGAAGCGUUCACGUCGCGGCCCCUGUAAGAUUCUGGUGAAUCUGCGAAUUCUGCUGU [C6U C39A] to GGGGGGCACAGCAGAAGCGUUCACGUCGCGGCCCCUGUCAGAUUCUGGUGAAUCUGCGAAUCCUGCUGU [C6G U62C], the self-cleavage falls from 0.852 to 0.0999.

Going from GGGGGUCACAGCAGAAGCGUUAACGUCGCGGCCCCUGUCAGAUUCUGGUGAAUCUGCGAAUUCUGCUGU [C6U C22A] to GGGGGUCACAGCAGAAGCGUUUACGUCGCGGCCCCUGUCAGAUUCUGGUGAAUCUGCGAAUUCUGCUGU [C6U C22U], the self-cleavage rises from 0.172 to 0.198.

Going from GGGGGGCACAUCAGAAGCGUUCACGUCGCGGCCCCUGUCAGAUUCUGGUGAAUCUGCGAAUUCUGCUGU [C6G G11U] to GGGGGGCACAACAGAAGCGUUCACGUCGCGGCCCCUGUCAGAUUCUGGUGAAUCUGCGAAUUCUGCUGU [C6G G11A], the self-cleavage falls from 0.185 to 0.177.

Compared with GGGGGGCACAGCAGAAGCGUUCACGUCGCGGCCCCUGUCAGAUUCUGGUGAAUCUGCGAAUUCGGCUGU [C6G U64G], GGGGGGCACAGCAGAAGCGUUCACGUCGCGGCCCCUGUCAGAUUCUGGUGAAUCUGCGAAUUCCGCUGU [C6G U64C] is lower in self-cleavage: 0.276 for the first, 0.166 for the second.

Compared with GGGGGGCACAGCAGAAGCGUUCACGUCGCGGCCCCUGUCAGAUUCUGGUGAAUCUGCGAAAUCUGCUGU [C6G U61A], GGGGGGCACAGCAGAAGCGUUCACGUCGCGGCCCCUGUCAGAUUCUGGUGAAUCUGCGAAGUCUGCUGU [C6G U61G] is higher in self-cleavage: 0.128 for the first, 0.209 for the second.

First: GGGGGUCACAGCAGAAGCGUUCACGUCGCGGCCCCUGUCAGAUUCUGGUGAAUUUGCGAAUUCUGCUGU [C6U C54U]
Second: GGGGGGCACAGCAGAAGCGUUCACGUCCCGGCCCCUGUCAGAUUCUGGUGAAUCUGCGAAUUCUGCUGU [C6G G28C]
The self-cleavage of the first is higher: 1.03 for the first, 0.0369 for the second.

For GGGGGGCACAGCAGAAGCGUUCACGUCACGGCCCCUGUCAGAUUCUGGUGAAUCUGCGAAUUCUGCUGU [C6G G28A], the self-cleavage was 0.0625.
